Drawing on PMC4675558, this text covers response (Cdc53/Amido Black) for one molecule.

For this assay, the target named is T1, Cdc53(267-851)/GST-Rbx1 complex expressed in bacteria, Q08273.
T1 chain: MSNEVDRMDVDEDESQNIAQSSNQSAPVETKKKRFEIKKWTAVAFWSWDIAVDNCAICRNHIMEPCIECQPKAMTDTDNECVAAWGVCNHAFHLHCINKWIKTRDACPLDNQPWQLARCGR
The experiment in a line: in vitro binding assay (MBP pull-down on amylose beads, Western blot quantification). The conditions noted are these: chain shown with the change, bacterial lysate expressing Cdc53(267-851)/Rbx1, normalized to Amido black signal of MBP tagged protein, read off a plot.

B1: (MBP)-Met30(1-186), P39014 M178E; I179E (protein)
chain: MRRERQRMMSFEDKDKDDLDNSNSNNSSEMTDTAMMPPLKRLLITGSSDDLAQGSSGKKKMTMATRSPSSSPDLATNDSGTRVQPLPEYNFTKFCYRHNPDIQFSPTHTACYKQDLKRTQEINANIAKLPLQEQSDIHHIISKYSNSNDKIRKLILDGILSTSCFPQLSYISSLVTHEEKIDFISI
Take B1: the response (Cdc53/Amido Black) runs as follows: (Exp 1, parent: est. 3.1) 0.15; (Exp 2, parent: est. 7.3) 2.9; (Exp 3, parent: est. 4.6) 0.45.
